Results taken from article doi:10.1101/2023.10.13.562012.
One block for each substance: values may come before it.

What was measured:
Test in all cases: cryo-EM structure
[1] = target: LHC-II complex (spinach (endogenous in leaves))
[2] = target: Rubisco (spinach (endogenous in leaves))
[3] = target: chloroplast carbonic anhydrase (CA) (spinach (endogenous in leaves))
[4] = target: tonoplast intrinsic protein TIP2;1 (spinach (endogenous in leaves))
[5] = target: tonoplast intrinsic protein TIP1;1 (spinach (endogenous in leaves))

- stoichiometry N [1]: 3
Substance: LHC-II complex (natural protein)

- stoichiometry N [2]: 8
Substance: Rubisco (complex)

- stoichiometry N [3]: 8
Substance: chloroplast carbonic anhydrase (CA) (enzyme)

- stoichiometry N [4]: 3
- stoichiometry N [5]: 4
Substance: tonoplast intrinsic protein TIP1;1 (natural protein)
